Reference: patent US8440804B2, “Polypeptides having modulatory effects on cells” (Ecole Normale Superieure de Lyon, priority 2006, dated 2013)

Key:
CNA = assay: Yeast two-hybrid assay; format: binding, human; settings: point mutant
Description: (A) Yeast two-hybrid mating assay. TB50α yeast were co-transformed with pSH18-34T (bearing a lacZ reporter gene) and plasmids directing the expression of LexA alone or in fusion with peptide aptamers R5G42, R7G44 or R5G52. MB210a yeast were transformed with the selected cDNA library plasmids directing the expression of CNAβ, CNAγ, and NS5ATP2 truncated proteins. To obtain negative controls, MB210a yeast were also transformed with the empty prey plasmid (pJG4-5) and with pJG4-5 directing the expression of Ras and FKBP12 prey proteins. To obtain a positive control, MB210a yeast were transformed with pJG4-5 directing the expression of RG22 peptide aptamer prey fusion protein that interacts with LexA in the context of most LexA fusion proteins.
The inventors set out to map the R5G42 binding site on CNA. The CNA interacting clones selected in the yeast two-hybrid experiments corresponded to the carboxy-terminal regions of the beta and gamma isoforms, encompassing the calmodulin-binding domain and the auto-inhibitory domain (see FIG. 3B). […] The LexA-R5G52 bait protein may thus not be properly expressed and/or folded in this yeast two-hybrid setting.
(§1) The inventors explored the ability of R5G42 mutants having a one amino acid change as compared to R5G42, to bind to CNA beta and gamma C-Terminal fragments (FIG. 3b) and to NS5A-TP2. To this end, they proceeded to yeast-two hybrid assays as in example 3. CNA beta and gamma C-Terminal fragments (FIG. 3b) and NS5A-TP2 were cloned in three different plasmids (pSH18-34, pJK103 and pRB18-40), which differed from each other in the level of sensitivity of their promoter to the bait/prey complex formation, pSH18-34 having the highest sensitivity and pRB18-40 having the lowest.
The 5′ end of RH6 (upper case) matches part of the HA epitope tag and the 5′ ends of RH4, RH3 and RH7 (upper case) match the 5′ extremity of the ADH terminator. The PCR reactions was performed using pCMV-SPORT6-CnAβ as a template. CnAβCter Δ1, Δ2, CaM were constructed by combining oligonucleotides RH6/RH4, RH6/RH3, RH6/RH7, respectively. […]

[1] = target: T1, CNA beta C-terminal fragment (Homo sapiens, UniProt P16298); assay: Yeast two-hybrid assays of R5G42 mutants; format: binding; settings: plasmids pSH18-34, pJK103, pRB18-40
T1 construct: expressed in transfected cells; host or cells: yeast (MB210a transformed with library plasmid, mated with bait strain)
Description: (§2) The capacity of R5G42 mutants having a one amino acid change as compared to R5G42 to bind CNA beta and gamma C-Terminal fragments (FIG. 3b) and NS5A-TP2 was tested in yeast two-hybrid assays. CNA beta and gamma C-Terminal fragments and NS5A-TP2 were cloned in three different vectors (pSH18-34, pJK103 and pRB18-40). These three plasmids differ from each other in the level of sensitivity of their promoter, pSH18-34 having the highest sensitivity and pRB18-40 having the lowest.
as §1

[2] = test system: CNA gamma C-terminal fragment; assay: Yeast two-hybrid assays of R5G42 mutants; format: binding, human; settings: plasmids pSH18-34, pJK103, pRB18-40
CNA gamma C-terminal fragment, sequence (P48454 386-512 limits assumed): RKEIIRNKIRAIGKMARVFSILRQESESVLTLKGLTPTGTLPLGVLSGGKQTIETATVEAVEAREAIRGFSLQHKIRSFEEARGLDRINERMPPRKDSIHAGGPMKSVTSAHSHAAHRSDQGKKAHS
Description: as §2, §1

NS5A-TP2 = target: T2, NS5A-TP2 (Homo sapiens, UniProt Q7Z4H3); assay: Further yeast two-hybrid binding assays (higher sensitivity)
T2 construct: expressed in transfected cells; host or cells: yeast
T2 sequence (Q7Z4H3 1-204): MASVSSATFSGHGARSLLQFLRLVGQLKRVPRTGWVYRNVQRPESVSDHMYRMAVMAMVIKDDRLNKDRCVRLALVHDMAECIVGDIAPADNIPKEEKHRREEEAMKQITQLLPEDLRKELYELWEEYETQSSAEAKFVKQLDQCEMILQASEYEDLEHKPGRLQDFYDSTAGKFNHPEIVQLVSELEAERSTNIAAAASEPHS
Description: FIG. 14. Specificity of aptamers according to the invention for CNA and NS5A-TP2 Interaction matrix between peptide aptamers R5G42, C2, C7, C8, N9, R5G44 and R5G52 with CNA constructs CNA1-CNA8 (A) CNA9-11 (B) and NS5A-TP2 (C). An interaction phenotype between CNA3/CNA 11, which both contain the Calmodulin binding domain (CaM) and the auto-inhibitory domain (Al) but not the CNB binding domain (CNB) and the aptamers R5G42, C2, C7, C8 and N9 is observed in a two-hybrid assay. R5G44 and R5G52 aptamers recognize neither the CNA fragments, nor NS5A-TP2. Only aptamers R5G42 and N9 recognize NS5A-TP2.
The inventors proceeded to further yeast two-hybrid binding assays between peptide aptamers R5G42 (SEQ ID 22), C2 (SEQ ID 23), C7 (SEQ ID 27), C8 (SEQ ID 28), N9 (SEQ ID 33), R5G44 and R5G52 with CNA constructs CNA1-CNA8 (FIG. 14A), CNA9-CNA11 (FIG. 14B) and NS5A-TP2 (SEQ ID 15) (FIG. 14C). The sensitivity of this yeast two-hybrid assay was higher than in the experiment reported above.

[3] = test system: Raw1 cells (osteoclasts precursors); assay: Raw cell differentiation assay (osteoclast differentiation); format: cell-based; settings: 4 days post-transfection, absence of RANKL
Description: Trx, CNA* and Peptide aptamers R5G42, C2, C7, C8 and N9 were transfected into RAW1 cells and left for four days in absence of the normal differentiation factor RANKL. CNA* is activated calcineurin A which elicits a robust differentiation response.
The inventors assessed the ability of some CNA-specific peptide aptamers to promote osteoclast differentiation via the activation of CNA. […] The differentiation state was then observed 4 days post-transfection.
Raw1 cells were transfected with the following plasmids: pCI-HA-Trx (negative control), pCI-HA CNA* (positive control for differentiation activation), pCI-HA R5G42, pCI-HA R5G42-C2, pCI-HA R5G42-C7, pCI-HA R5G42-C8 and pCI-HA R5G42-N9. The sequence of CNA* is the same as that of CNA8 (see FIG. 17, SEQ ID 42). The sequences of the R5G42 (SEQ ID 22), C2 (SEQ ID 23), C7 (SEQ ID 27), C8 (SEQ ID 28) and N9 (SEQ ID 33) aptamers is shown on FIG. 8.
One day before the transfection, Raw I cells were plated in 6-well dishes at 50 cell/mm^2. Transfection was performed with FuGene 6 Reagent (Roche) using 2 μg of each plasmid and following supplier recommendations.
8 h after transfection D-MEM was changed with α-MEM. In the control dishes α-MEM+50 ng/ml RANKL was added. After 2 days, medium was changed with a fresh medium. The differentiation state was then observed 4 days post-transfection.

recognition of NS5A-TP2 (NS5A-TP2): recognized NS5A-TP2
B1: N9: R5G42 mutant having a one amino acid change (SEQ ID 33) (protein)
chain: MVKQIESKTAFQEALDAAGDKLVVVDFSAAWCGPSAVTFAVCALGPCKMIKPFFHSLSEKYSNVIFLEVDVDDCQDVASECEVKCMPTFQFFKKGQKVGEFSGANKEKLEATINELV
modifications: Aptamer R5G42 mutant N9
two hybrid interaction phenotype against CNA compared to R5G42 (CNA): dramatic reduction | yeast two-hybrid interaction [1]: not with the CNA beta and gamma C-terminal fragments | yeast two-hybrid interaction [2]: not with the CNA beta and gamma C-terminal fragments | osteoclast differentiation [3]: no osteoclasts fully differentiated were detectable
